Experimental data from article doi:10.1101/2021.03.25.436948.

Target: Drosophila melanogaster GNPTAB homolog, luminal portion (residues 50-630) (Drosophila melanogaster)
Test: cryo-EM structure

- stoichiometry N: 2
Substance: Drosophila melanogaster GNPTAB homolog, luminal portion (residues 50-630) (domain or fragment)
